{
  "source": "paper PMC10433801",
  "key": {"[1]": {"target": "CsrA-H6 (Salmonella Typhimurium / Escherichia coli (sequences stated identical)) (UniProt P69913)", "sequence (P69913 whole entry)": "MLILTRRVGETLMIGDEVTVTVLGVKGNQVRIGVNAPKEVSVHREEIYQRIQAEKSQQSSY", "assay": "EMSA", "settings": "RNA EMSA: 10 mM Tris-HCl pH 7.5, 10 mM MgCl2, 100 mM KCl, 200 ng/uL yeast RNA, 0.2 mg/mL BSA, 7.5% glycerol, 20 mM DTT, 37 C 30 min; DNA EMSA: 10 mM Tris pH …"}, "[2]": {"test_system": "CsrA-H6 (Salmonella Typhimurium / Escherichia coli (sequences stated identical))", "assay": "EMSA", "settings": "10 mM MgCl2; yeast RNA 200 ng/uL; apparent Kd; RNA EMSA: 10 mM Tris-HCl pH 7.5, 10 mM MgCl2, 100 mM KCl, 200 ng/uL yeast RNA, 0.2 mg/mL BSA, 7.5% glycerol, 20 mM DTT, 37 C 30 min; DNA EMSA: 10 mM Tris pH …"}},
  "data": [
    {"substance": "GGGACAAAAAAUUGCCACGAUGACGGCAGUUUCAGUGGAGACGGUGAGCAAUGAAUAAAGAACGCAUUAUUCAGGAAUUUGUGCCGGGCAAACAGGUC [eutS RNA (-47 to +48)]", "values": [
      {"measurement": "Kd", "setting": "[1]", "value": 5.7, "unit": "nM"}
    ]},
    {"substance": "GGGACUUUUUAUCAGGGCCAGGAUAAUGGUAAUAAAAAGUGAAUGUAAAUAAUGUGUUUUGUUUAUAACAAUAAAUUAACUGAGGGGUUUUAUCAUG [pocR RNA (-91 to +3)]", "values": [
      {"measurement": "Kd", "setting": "[1]", "value": 7.4, "unit": "nM"}
    ]},
    {"substance": "GGGUUCUUAUAGUCCCAACUAUCGGAACACUCCAUGCGAGGUCUUUAUGCAACAAGAAGCACUAGGAAUGGUAGAAACCAAAGG [pduA RNA (-44 to +38)]", "values": [
      {"measurement": "Kd", "setting": "[1]", "value": 31, "unit": "nM"}
    ]},
    {"substance": "eutS RNA (-47 to +48)", "values": [
      {"measurement": "Kd", "setting": "[2]", "value": 5.7, "unit": "nM"}
    ]},
    {"substance": "pduA RNA (-44 to +38)", "values": [
      {"measurement": "Kd", "setting": "[2]", "value": 31, "unit": "nM"}
    ]},
    {"substance": "pocR RNA (-91 to +3)", "values": [
      {"measurement": "Kd", "setting": "[2]", "value": 7.4, "unit": "nM"}
    ]}
  ]
}
